Data published in the RNAGym collection of RNA variant scans (doi:10.1073/pnas.2313332121).

B1: TPR t1 (parent)
chain: GACCAAUCUGCCCUCAGAGCUCGAGAACAUCUUCGGAUGCAGAGGAGGCAGGCUUCGGUGGCGCGAUAGCGCCAACGUCCUCAACCUCCAAUGCAUCCCACCACAUGAUGAUGCCUGAAGAGCCUUGGUUUUUUG

Variants of: B1
Assay: polymerase ribozyme fitness, log enrichment relative to wild type (log ratio); higher = more active; in vitro selection for triplet polymerase activity
How it was run: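 One round of in vitro selection, in triplicate, was applied to PCR-built, transcribed mutant libraries of each subunit of a heterodimeric triplet polymerase ribozyme. The steps were annealing with a biotinylated primer, partner subunit and triplets, incubation frozen at −7 °C, gel excision of extended constructs, streptavidin-bead capture and RT-PCR. Fitness is the logarithm, base 2, of genotype enrichment over wild-type enrichment from inverse-variance-weighted replicate averages of Illumina-sequenced inputs and outputs, keeping genotypes with ≥10 input reads and ≥1 read per output.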

Variant | polymerase ribozyme fitness (log ratio)
C15G C73A C82G G117U U130C | -0.6
A2U A5U C8A C79G C115G | -5.43
G71C A84U C94U | -1.84
C8U U9C G52U U55C U59C | 0.781
G44A C99U | -4.58
A6U G48U C53A C88G C102A | -3.09
U54A U106A | -1.04
G39U C104A G120A | -1.22
C85A G127C | -4.59
A27U C64U | -2.76
U21A A50C A68G | -6.32
C11G C20U G69U A84U C85U G122A U126G G128U | -2.39
U9G U78C A121U | 1.6
C12U G47A U87C | -0.382
A6G G63U | -1.16
C40A G48A G117C | -5.6
C15U C76A U87A C101G | -4
G44U G58C G113A | -1.31
G71A C79G C124G U125A | -3.71
G63C C89A U116G | -4.71
C20U C72U | -1.9
A50U G52U | -2.39
A75G U96A U106G | -3.41
G39C C73G C102A | -4.36

Variant | polymerase ribozyme fitness (log ratio)
C97G G120A A121U | -3.45
G47C G61U U130A | -2.36
A26U C56A | -4.03
A50U G52U U87G | -2.24
G48C C56A C97A C104U U112G | -6.59
C64U C86A G122A U132A | -2.78
C13U C20U G61U C70U U92C | -4.03
C8G G65U | -5.38
C72U C80U C82A U129G | -2.75
G47U C85G A111C | -2.87
G61U C85G | -2.33
G47U A111U | -3.66
C56U G69C C114G | -6.88
G61U C86U G135U | -1.31
G44C U106C | -0.754
G42U C56G | -1.08
A37U G42C C49G C85U G93U C102U U133G | -5.53
U7G G10A C15G G17A A43C C53G C97U | -4.35
G17A G39U | -3.39
A27G C34G A43C G45U C115A | -7.59
G39C C53G C124U G128U | -0.975
C88U C98G C114G | -6.17
U59G C86U U112C | 1.02
C53U G69C | -1.01

Variant | polymerase ribozyme fitness (log ratio)
C56G G107U | -5.02
C53A C94A U112C | 1.14
A26U G135U | -4.2
C72U G113C A118C | -3.51
G58C C70A G77C G117A | -7.23
G35U U112C | -3.04
U81A G93C | -2.88
U78A G128A | -1.76
G36C G120A | -0.114
C8U C20G | -3.53
G71C C80U | -4.42
A5C A50U G69A U81A A121C | -1.62
U54G C82A C94G C124U | 0.658
C79A C114G | -4.53
A26U C70U C114U | -7.55
C4A G60U G127A | -2.51
A27U U55G C56A G69C | -6.66
C56A C73U | 0.483
A18C U92C G117A G120U U129A | -5.88
C94U C102G | -6.09
C56G A84G C114U | -4.61
C72G G77C U78C A105G A119G | -2.47
C8U C97U | -0.0319
C34A C94A | -4.19

Variant | polymerase ribozyme fitness (log ratio)
G58U C64U U78C U96C C124U U126C U133G | -0.65
A75U U81G | -3.97
C11U G63C | -1.64
A29G G63C | -1.45
A6G C12G A27U G113U U125A | -7.04
G57C C104U G110C U131A | -4.01
A5C U9G C80U A90U U92A | -2.94
A6C U9C A46C G61A C62U C82U | -3.08
G71U U78G | -0.594
C53G U81C U106A | -4.71
C22G A50C G60U C115A | -2.18
A6U G36A G71U | -0.709
G61U C72A | 0.45
C13G A41U | -3.04
C3U G61C | -2.38
G51A G69C U112A | -5.2
G51A G52A G61U C101U | -3.85
C11G C70G | -2.08
A18U U78A A95U C104U | -4.27
C11A G39A A105C | -3.91
G48C C62U | -2.91
A24G C123G | -0.893
U7C C11G G65C A83U G120C A121U | -6.35
G71C C99U | -4.28

Variant | polymerase ribozyme fitness (log ratio)
C12U G19C A46U U112A | -0.273
C20A A111G | -3.92
C34U C102U | -2.22
U21A C89G | -2.25
C13U C56A C62U C97A C102U | -5.15
G71U | -0.118
G60U C89A A111C C114A | -4.37
C13U A37G A118G G127U G128U U131G | -0.0788
A2C C4A U9G C12G C104U U116C U133A | 0.375
A95G U126C | -0.892
C20U G61A | -1.13
C62G G71U C97A A119G | -4.38
G10A U106C | -0.101
C28G A46G G120A U130A | -2.51
A29C U55C C72U C115A U133A | -2.23
A2C C123U G128C | -0.305
C12U C34A G63A | -5.16
A16U C64U | -1.71
U38G G47U C76U C85U U96C U130C | -5.5
A43U C72A C114U G128C | -5.92
U14G U112A | -0.444
A6C A95G C102U C124G | -0.561
G44U C82A C97A A121U | -3.17
G63C U129A | -2.09

Variant | polymerase ribozyme fitness (log ratio)
C4U A5U U59G C64U | -3.75
C72G G117C | -3.87
G69U C98U U112G | -1.16
G17U G71U U132A | -2.7
G39A A46U G61A U129A | -2.38
U59C A91U | -2.41
C56A C64U C115A U126C | -2.05
C12G A24G A41U G57C G110A | -5.76
U9C G42A | -1.15
C8U U78A | 0.175
A6U G39U C53G A68G U96G | -7.34
C13U C114A | -1.07
A83U C88U C101A | -1.52
U9A G113A U130G | -0.107
A46C A50U C72A | -1.15
A121G U131A | 2.42
A26C G69U G120U | -2.51
C12G C15U C62A | -1.99
C70A C80G U87A C88U C94U C123G | -6.08
C13A G57U | -1.78
C72U G93A C115U | -1.52
C40U C56A C82G C97U C115U U132C | -4.39
C11A C72A A91G C101U G113C U132C | -4.14
A43G G61U C114A G127C U132A | -3.36

Variant | polymerase ribozyme fitness (log ratio)
G45U G128U | -2.42
A2G G77U C82G | -0.807
G60A C82A G113A | -0.999
G77U A95C C102A | -3.06
U87A C89A A91C A95G G113C | -2.9
A50C U87G C98U | -0.87
G51A A74G U131A | -1.77
C62G G63A | -3.83
C40U G110U | -2.35
A5G A16U G61U A66C U129A | -3.64
G52U A111U | -3.93
C80A A91G G120U | -5.41
G10C A41U A50G | -1.93
C4A G48C C62A | -3.18
C11G A105U U112A A119G G120A G122A | -0.827
C31A C115A | -4.37
A29G G45U C73U U78G U87G | -2.9
C13A G71U A119G | -1.25
C8A A43C | -1.76
C79A A84G | -3.26
U14G A37C | -2.99
C4A A43G U130C | -2.6
C12G C15G C123U | -1.81
